# B1: Spt6-3XFLAG (wild type) [S. cerevisiae (endogenous in strain S288c)] / Spn1 (wild type) [S. cerevisiae (endogenous in strain S288c)] (parent)
# chain 1: MEETGDSKLVPRDEEEIVNDNDETKAPSEEEEGEDVFDSSEEDEDIDEDEDEARKVQEGFIVNDDDENEDPGTSISKKRRKHKRREREEDDRLSEDDLDLLMENAGVERTKASSSSGKFKRLKRVGDEGNAAESESDNVAASRQDSTSKLEDFFSEDEEEEESGLRNGRNNEYGRDEEDHENRNRTADKGGILDELDDFIEDDEFSDEDDETRQRRIQEKKLLREQSIKQPTQITGLSSDKIDEMYDIFGDGHDYDWALEIENEELENGNDNNEAEEEEIDEETGAIKSTKKKISLQDIYDLEDLKKNLMTEGDMKIRKTDIPERYQELRAGITDYGNMSSEDQELERNWIAEKISVDKNFDANYDLTEFKEAIGNAIKFITKENLEVPFIYAYRRNYISSREKDGFLLTEDDLWDIVSLDIEFHSLVNKKDYVQRFYAELHIDDPIVTEYFKNQNTASIAELNSLQDIYDYLEFKYANEINEMFINHTGKTGKKHLKNSSYEKFKASPLYQAVSDIGISAEDVGENISSQHQIHPPVDHPSSKPVEVIESILNANSGDLQVFTSNTKLAIDTVQKYYSLELSKNTKIREKVRSDFSKYYLADVVLTAKGKKEIQKGSLYEDIKYAINRTPMHFRRDPDVFLKMVEAESLNLLSVKLHMSSQAQYIEHLFQIALETTNTSDIAIEWNNFRKLAFNQAMDKIFQDISQEVKDNLTKNCQKLVAKTVRHKFMTKLDQAPFIPNVRDPKIPKILSLTCGQGRFGADAIIAVYVNRKGDFIRDYKIVDNPFDKTNPEKFEDTLDNIIQSCQPNAIGINGPNPKTQKFYKRLQEVLHKKQIVDSRGHTIPIIYVEDEVAIRYQNSERAAQEFPNKPPLVKYCIALARYMHSPLLEYANLTSEEVRSLSIHPHQNLLSSEQLSWALETAFVDIVNLVSVEVNKATDNNYYASALKYISGFGKRKAIDFLQSLQRLNEPLLARQQLITHNILHKTIFMNSAGFLYISWNEKRQKYEDLEHDQLDSTRIHPEDYHLATKVAADALEYDPDTIAEKEEQGTMSEFIELLREDPDRRAKLESLNLESYAEELEKNTGLRKLNNLNTIVLELLDGFEELRNDFHPLQGDEIFQSLTGESEKTFFKGSIIPVRVERFWHNDIICTTNSEVECVVNAQRHAGAQLRRPANEIYEIGKTYPAKVIYIDYANITAEVSLLDHDVKQQYVPISYSKDPSIWDLKQELEDAEEERKLMMAEARAKRTHRVINHPYYFPFNGRQAEDYLRSKERGEFVIRQSSRGDDHLVITWKLDKDLFQHIDIQELEKENPLALGKVLIVDNQKYNDLDQIIVEYLQNKVRLLNEMTSSEKFKSGTKKDVVKFIEDYSRVNPNKSVYYFSLNHDNPGWFYLMFKINANSKLYTWNVKLTNTGYFLVNYNYPSVIQLCNGFKTLLKSNSSKNRMNNYR
# chain 2: MSTADQEQPKVVEATPEDGTASSQKSTINAENENTKQNQSMEPQETSKGTSNDTKDPDNGEKNEEAAIDENSNVEAAERKRKHISTDFSDDDLEKEEHNDQSLQPTVENRASKDRDSSATPSSRQELEEKLDRILKKPKVRRTRRDEDDLEQYLDEKILRLKDEMNIAAQLDIDTLNKRIETGDTSLIAMQKVKLLPKVVSVLSKANLADTILDNNLLQSVRIWLEPLPDGSLPSFEIQKSLFAALNDLPVKTEHLKESGLGRVVIFYTKSKRVEAQLARLAEKLIAEWTRPIIGASDNYRDKRIMQLEFDSEKLRKKSVMDSAKNRKKKSKSGEDPTSRGSSVQTLYEQAAARRNRAAAPAQTTTDYKYAPVSNLSAVPTNARAVGVGSTLNNSEMYKRLTSRLNKKHK
# B2: Spn1 (wild type) [S. cerevisiae (endogenous in strain S288c)] / Spt6-3XFLAG (wild type) [S. cerevisiae (endogenous in strain S288c)] (parent)
# chain 1: B1 chain 2
# chain 2: B1 chain 1
# Variants of: B1
# Experiment: Spt6-3XFLAG affinity purification with quantitative mass spectrometry
# Conditions: shift to non-permissive temperature, point at -log10 p-value about 3.5, read off a plot
row,screen value (log2 fold-change),Variant
1,-4.2,chain 1 F249K

# Variants of: B2
# Experiment: as above
# Conditions: with Spt6-3XFLAG (wild type) [S. cerevisiae (endogenous in strain S288c)]; shift to non-permissive temperature; point at -log10 p-value about 3.5; read off a plot
row,screen value (log2 fold-change),Variant
1,-4.3,chain 1 MSTADQEQPKVVEATPEDGTASSQKSTINAENENTKQNQSMEPQETSKGTSNDTKDPDNGEKNEEAAIDENSNVEAAERKRKHISTDFSDDDLEKEEHNDQSLQPTVENRASKDRDSSATPSSRQELEEKLDRILKKPKVRRTRRDEDDLEQYLDEKILRLKDEMNIAAQLDIDTLNKRIETGDTSLIAMQKVKLLPKVVSVLSKANLADTILDNNLLQSVRIWLEPLPDGSLPSFEIQKSLFAALNDLPVKTEHLKESGLGRVVIEYTKSKRVEAQLARLAEKLIAEWTRPIIGASDNYRDKRIMQLEFDSEKLRKKSVMDSAKNRKKKSKSGEDPTSRGSSVQTLYEQAAARRNRAAAPAQTTTDYKYAPVSNLSAVPTNARAVGVGSTLNNSEMYKRLTSRLNKKHK [chain 1 F267E]

# Same assay, conditions: with Spt6-3XFLAG (wild type) [S. cerevisiae (endogenous in strain S288c)]; shift to non-permissive temperature; point at -log10 p-value about 3.4; read off a plot
row,screen value (log2 fold-change),Variant
1,-4,chain 1 MSTADQEQPKVVEATPEDGTASSQKSTINAENENTKQNQSMEPQETSKGTSNDTKDPDNGEKNEEAAIDENSNVEAAERKRKHISTDFSDDDLEKEEHNDQSLQPTVENRASKDRDSSATPSSRQELEEKLDRILKKPKVRRTRRDEDDLEQYLDEKILRLKDEMNIAAQLDIDTLNKRIETGDTSLIAMQKVKLLPKVVSVLSKANLADTILDNNLLQSVRIWLEPLPDGSLPSFEIQKSLFAALNDLPVKTEHLKESGLGDVVIFYTKSKRVEAQLARLAEKLIAEWTRPIIGASDNYRDKRIMQLEFDSEKLRKKSVMDSAKNRKKKSKSGEDPTSRGSSVQTLYEQAAARRNRAAAPAQTTTDYKYAPVSNLSAVPTNARAVGVGSTLNNSEMYKRLTSRLNKKHK [chain 1 R263D]

# From paper PMC12053661
